B1: FLAG-PAK4 (human p21-activated kinase 4 ligated with FLAG-tag at its N-terminus) (protein)
chain: MFGKRKKRVEISAPSNFEHRVHTGFDQHEQKFTGLPRQWQSLIEESARRPKPLVDPACITSIQPGAPKTIVRGSKGAKDGALTLLLDEFENMSVTRSNSLRRDSPPPPARARQENGMPEEPATTARGGPGKAGSRGRFAGHSEAGGGSGDRRRAGPEKRPKSSREGSGGPQESSRDKRPLSGPDVGTPQPAGLASGAKLAAGRPFNTYPRADTDHPSRGAQGEPHDVAPNGPSAGGLAIPQSSSSSSRPPTRARGAPSPGVLGPHASEPQLAPPACTPAAPAVPGPPGPRSPQREPQRVSHEQFRAALQLVVDPGDPRSYLDNFIKIGEGSTGIVCIATVRSSGKLVAVKKMDLRKQQRRELLFNEVVIMRDYQHENVVEMYNSYLVGDELWVVMEFLEGGALTDIVTHTRMNEEQIAAVCLAVLQALSVLHAQGVIHRDIKSDSILLTHDGRVKLSDFGFCAQVSKEVPRRKSLVGTPYWMAPELISRLPYGPEVDIWSLGIMVIEMVDGEPPYFNEPPLKAMKMIRDNLPPRLKNLHKVSPSLKGFLDRLLVRDPAQRATAAELLKHPFLAKAGPPASIVPLMRQNRTR
B2: HA-JIK (human JNK/SAPK-inhibitory kinase ligated with HA-tag at its N-terminus) (protein)
chain: MRKGVLKDPEIADLFYKDDPEELFIGLHEIGHGSFGAVYFATNAHTSEVVAIKKMSYSGKQTHEKWQDILKEVKFLRQLKHPNTIEYKGCYLKEHTAWLVMEYCLGSASDLLEVHKKPLQEVEIAAITHGALHGLAYLHSHALIHRDIKAGNILLTEPGQVKLADFGSASMASPANSFVGTPYWMAPEVILAMDEGQYDGKVDIWSLGITCIELAERKPPLFNMNAMSALYHIAQNDSPTLQSNEWTDSFRRFVDYCLQKIPQERPTSAELLRHDFVRRDRPLRVLIDLIQRTKDAVRELDNLQYRKMKKILFQETRNGPLNESQEDEEDSEHGTSLNREMDSLGSNHSIPSMSVSTGSQSSSVNSMQEVMDESSSELVMMHDDESTINSSSSVVHKKDHVFIRDEAGHGDPRPEPRPTQSVQSQALHYRNRERFATIKSASLVTRQIHEHEQENELREQMSGYKRMRRQHQKQLIALENKLKAEMDEHRLKLQKEVETHANNSSIELEKLAKKQVAIIEKEAKVAAADEKKFQQQILAQQKKDLTTFLESQKKQYKICKEKIKEEMNEDHSTPKKEKQERISKHKENLQHTQAEEEAHLLTQQRLYYDKNCRFFKRKIMIKRHEVEQQNIREELNKKRTQKEMEHAMLIRHDESTRELEYRQLHTLQKLRMDLIRLQHQTELENQLEYNKRRERELHRKHVMELRQQPKNLKAMEMQIKKQFQDTCKVQTKQYKALKNHQLEVTPKNEHKTILKTLKDEQTRKLAILAEQYEQSINEMMASQALRLDEAQEAECQALRLQLQQEMELLNAYQSKIKMQTEAQHERELQKLEQRVSLRRAHLEQKIEEELAALQKERSERIKNLLERQEREIETFDMESLRMGFGNLVTLDFPKEDYR

How the values were obtained:
[1] = biological target: GST (glutathione S-transferase, negative control substrate) [GST: P08515]
[2] = biological target: GST-MKK7 (unactive/inactive, Upstate) [GST: P08515]

Row | Protein | in-vitro phosphorylation of the substrate (immune complex phosphorylation method, [γ-32P]ATP, SDS-PAGE, autoradiography) [1] | in-vitro phosphorylation of the substrate (immune complex phosphorylation method, [γ-32P]ATP, SDS-PAGE, autoradiography) [2]
1 | B1 | The phosphorylation was not observed when GST was used as a substrate for a negative control | The phosphorylation of GST-MKK7 by PAK4 was observed
2 | B2 | The phosphorylation was not observed when GST was used as a substrate for a negative control | The phosphorylation of GST-MKK7 by JIK was observed

Source: patent publication US20060172360
